Test results as given in patent publication US20140329742A1 (GlaxoSmithKline, published 2014).
Where no end group is shown, it is not given here.

T1: human Neuropeptide Y receptor type 2 (human, UniProt P49146 1-381)
T1 sequence (looked up): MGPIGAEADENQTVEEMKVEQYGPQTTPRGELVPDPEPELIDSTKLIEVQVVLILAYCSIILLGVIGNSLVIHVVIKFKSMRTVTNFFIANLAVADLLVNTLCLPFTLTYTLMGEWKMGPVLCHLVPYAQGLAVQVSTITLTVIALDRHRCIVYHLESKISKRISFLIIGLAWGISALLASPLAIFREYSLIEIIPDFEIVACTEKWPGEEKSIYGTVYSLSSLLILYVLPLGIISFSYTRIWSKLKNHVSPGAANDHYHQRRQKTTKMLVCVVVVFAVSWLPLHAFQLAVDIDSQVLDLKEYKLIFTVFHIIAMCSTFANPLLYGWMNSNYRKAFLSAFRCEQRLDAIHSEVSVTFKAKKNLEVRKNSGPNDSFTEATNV


target: T1, human Neuropeptide Y receptor type 2; experiment: cell-based or functional assay

First: IKPPYPGCDASPEEQNKYYASLRAYWNLVTRQRY-NH2 [Peptide 8]
Second: PKPEAPGCDASPEEWNRYYASLRKYLNWVTRQNY-NH2 [Peptide 1]
The “hNPY Y2 pEC50 (melanophore assay)” value of the first is higher: 9.3 for the first, 7.9 for the second.

First: PKPEAPGEDASPKEWNRYYASLRKYLNWVTRQRY-NH2 [Peptide 3]
Second: PKPVAPGCDASPAELNRQYSDLRNYWNLVTRQRY-NH2 [Peptide 15]
The “hNPY Y2 pEC50 (melanophore assay)” value of the first is higher: 9.2 for the first, 8.9 for the second.

PKPEAPLSKQLEEEAVRYYASLRHYLNLVTRQRY-NH2 [Peptide 21] and IKPEAPLSKQLEEEAVRYYASLRHYLNLVTRQRY-NH2 [Peptide 2] are within 0.2 log units of each other in “hNPY Y2 pEC50 (melanophore assay)” value: 8.7 for the first, 8.6 for the second.

PKPEAPGCDASPEEWNRYYASLRKYLNWVTRQHY-NH2 [Peptide 14] was tested, and the “hNPY Y2 pEC50 (melanophore assay)” value was 8.2.

target: T1, human Neuropeptide Y receptor type 2; experiment: cell-based or functional assay; remark: another data set of the same source

First: PKPEAPGKDASPEELNRYYASLRKYLNWVTRQRY-NH2 [Example 31]
Second: PKPEHPGKDASPEEWNRYYASLRKYLNWVTRQRY-NH2 [Example 25]
The “hNPY Y2 pEC50 (melanophore assay)” value of the first is higher: 9.8 for the first, 9.6 for the second.

For PKPEAPGKDASPEELNRYYASLRKYLNWLTRQRY-NH2 [Example 2], the “hNPY Y2 pEC50 (melanophore assay)” value was 9.8.
